Data from US20120231024A1 (UNIVERSIT TSKLINIKUM FREIBURG, published 2012).

Biological target: T1, prostate specific membrane antigen (PSMA), native, on the cell surface (human, UniProt Q04609 1-750)
T1 construct: whole, on cells; also called cell-surface PSMA; native PSMA
Test: flow cytometry saturation curve on LNCaP cells; concentration at 50% saturation of PSMA sites
Experimental: The binding properties of the isolated monoclonal antibodies or an antigen binding portion thereof to the native PSMA were compared by treating LNCAP cells with increasing concentrations of the first step anti-PSMA Ab followed by incubation with the second step PE-labeled antibody. From the resulting saturation curves the antibody concentration reaching 50% saturation of PSMA sites can be read.

T1 sequence (Q04609 whole entry): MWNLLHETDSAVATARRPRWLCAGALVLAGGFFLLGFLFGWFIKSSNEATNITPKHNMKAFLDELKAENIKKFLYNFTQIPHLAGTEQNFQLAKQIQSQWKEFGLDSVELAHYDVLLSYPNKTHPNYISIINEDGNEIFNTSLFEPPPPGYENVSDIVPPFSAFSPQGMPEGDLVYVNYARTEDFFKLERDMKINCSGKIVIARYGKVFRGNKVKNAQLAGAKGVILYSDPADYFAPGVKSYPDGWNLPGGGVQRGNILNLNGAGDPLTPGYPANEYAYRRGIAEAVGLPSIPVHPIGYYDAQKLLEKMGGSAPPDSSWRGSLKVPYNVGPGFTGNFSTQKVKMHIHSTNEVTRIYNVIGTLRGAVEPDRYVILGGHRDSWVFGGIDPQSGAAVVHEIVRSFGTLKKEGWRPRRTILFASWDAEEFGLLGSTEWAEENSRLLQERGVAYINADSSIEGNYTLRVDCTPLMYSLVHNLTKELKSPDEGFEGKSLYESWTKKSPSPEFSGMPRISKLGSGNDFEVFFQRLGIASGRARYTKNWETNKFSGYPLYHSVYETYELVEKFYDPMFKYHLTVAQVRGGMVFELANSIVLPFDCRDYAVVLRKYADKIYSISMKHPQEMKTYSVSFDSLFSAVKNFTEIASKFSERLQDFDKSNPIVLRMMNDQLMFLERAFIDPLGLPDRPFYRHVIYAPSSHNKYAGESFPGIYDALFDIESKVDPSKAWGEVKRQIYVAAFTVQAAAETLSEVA

B1: scFv A5 (scFv)
scFv: MADVKLVESGGGLVKPGESLKLSCIASGFTFSDYYMYWVRQTPEKRLEWVAIISDGGYYTYYSDIIKGRFTISRDNAKNNLYLQMSSLKSEDTAMYYCTRGFPLLRHGAMDYWGLGTSVTVSSTKTTPKLEEGEFSEARVDIQMTQSPKFMSTSVGDRVSVTCKASQNVDTNVAWYQQKPGQSPKALIYSASYRYSDVPDRFTGSESGTDFTLTISNVQSEDLAEYFCQQYDSYPYTFGGGTKLEIKRADAAA
notes: also called scFv AS [sic]
EC50: 60 nM
